In the supplement of paper PMC10567573:

B1: C1orf137 (parent)
chain: LPQETNLTLKVCKPQAPQKLDPTL

Variants of: B1
Experiment: protein stability index of a GFP-peptide fusion (GPS, HEK-293T) (PSI 1-6); higher = more stable
Conditions: c terminus: a fixed tail appended
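Also: lentivirally expressed fusions sorted by FACS into six bins by GFP to DsRed ratio, PSI derived from sequencing read proportions per bin multiplied by bin number.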

Variant | protein stability index
LPQETNLTLKVCKPQAPQKLDVTL | 2.87
LPQETNLTLKVCKPQAPQRLDPTL | 3.55
LPQETNLTLKVCKPQAPQTLDPTL | 4.06
LPQETNLTLKVCKPQAPQELDPTL | 3.77
LPQETNLTLKVCKPQAPQGLDPTL | 3.5
LPQETNLTLKVCKPQAPQSLDPTL | 3.72
LPQETNLTLKVCKPQAPQHLDPTL | 3.78
LPQETNLTLKVCKPQAPQALDPTL | 3.8
LPQETNLTLKVCKPQAPQVLDPTL | 4.06
LPQETNLTLKVCKPQAPQYLDPTL | 3.36
LPQETNLTLKVCKPQAPQNLDPTL | 3.56
LPQETNLTLKVCKPQAPQWLDPTL | 2.36
LPQETNLTLKVCKPQAPQQLDPTL | 3.85
LPQETNLTLKVCKPQAPQFLDPTL | 2.96
LPQETNLTLKVCKPQAPQILDPTL | 2.54
LPQETNLTLKVCKPQAPQCLDPTL | 2.92
LPQETNLTLKVCKPQAPQLLDPTL | 3.01
LPQETNLTLKVCKPQAPQPLDPTL | 3.96
LPQETNLTLKVCKPQAPQDLDPTL | 3.92
LPQETNLTLKVCKPQAPQMLDPTL | 3.53
LPQETNLTLKVCKPQAPQKEDPTL | 5.09
LPQETNLTLKVCKPQAPQKCDPTL | 4.18
LPQETNLTLKVCKPQAPQKWDPTL | 3.51
LPQETNLTLKVCKPQAPQKQDPTL | 4.47

Variant | protein stability index
LPQETNLTLKVCKPQAPQKADPTL | 4.75
LPQETNLTLKVCKPQAPQKGDPTL | 4.91
LPQETNLTLKVCKPQAPQKHDPTL | 4.43
LPQETNLTLKVCKPQAPQKTDPTL | 4.5
LPQETNLTLKVCKPQAPQKMDPTL | 4.13
LPQETNLTLKVCKPQAPQKFDPTL | 3.31
LPQETNLTLKVCKPQAPQKNDPTL | 4.29
LPQETNLTLKVCKPQAPQKKDPTL | 4.9
LPQETNLTLKVCKPQAPQKIDPTL | 3.42
LPQETNLTLKVCKPQAPQKPDPTL | 4.48
LPQETNLTLKVCKPQAPQKSDPTL | 4.34
LPQETNLTLKVCKPQAPQKDDPTL | 4.98
LPQETNLTLKVCKPQAPQKRDPTL | 4.42
LPQETNLTLKVCKPQAPQKYDPTL | 4.46
LPQETNLTLKVCKPQAPQKVDPTL | 4.03
LPQETNLTLKVCKPQAPQKLDPTW | 3.3
LPQETNLTLKVCKPQAPQKLDPTG | 4.52
LPQETNLTLKVCKPQAPQKLDPTF | 4.32
LPQETNLTLKVCKPQAPQKLDPTR | 4.33
LPQETNLTLKVCKPQAPQKLDPTN | 4.56
LPQETNLTLKVCKPQAPQKLDPTI | 4.1
LPQETNLTLKVCKPQAPQKLDPTT | 4.39
LPQETNLTLKVCKPQAPQKLDPTM | 3.94
LPQETNLTLKVCKPQAPQKLDPTE | 4.8

Variant | protein stability index
LPQETNLTLKVCKPQAPQKLDPTD | 5.42
LPQETNLTLKVCKPQAPQKLDPTY | 3.37
LPQETNLTLKVCKPQAPQKLDPTC | 4.35
LPQETNLTLKVCKPQAPQKLDPTS | 4.53
LPQETNLTLKVCKPQAPQKLDPTH | 4.75
LPQETNLTLKVCKPQAPQKLDPTK | 4.21
LPQETNLTLKVCKPQAPQKLDPTA | 4.34
LPQETNLTLKVCKPQAPQKLDPTV | 4.52
LPQETNLTLKVCKPQAPQKLDPTQ | 4.37
LPQETNLTLKVCKPQAPQKLDPHL | 3.44
LPQETNLTLKVCKPQAPQKLDPDL | 4.8
LPQETNLTLKVCKPQAPQKLDPGL | 3.8
LPQETNLTLKVCKPQAPQKLDPYL | 2.94
LPQETNLTLKVCKPQAPQKLDPIL | 3.37
LPQETNLTLKVCKPQAPQKLDPSL | 3.85
LPQETNLTLKVCKPQAPQKLDPAL | 3.47
LPQETNLTLKVCKPQAPQKLDPNL | 4.2
LPQETNLTLKVCKPQAPQKLDPLL | 3.06
LPQETNLTLKVCKPQAPQKLDPFL | 2.98
LPQETNLTLKVCKPQAPQKLDPCL | 3.89
LPQETNLTLKVCKPQAPQKLDPWL | 2.48
LPQETNLTLKVCKPQAPQKLDPEL | 4.91
LPQETNLTLKVCKPQAPQKLDPQL | 4.21
LPQETNLTLKVCKPQAPQKLDPRL | 3.48

Variant | protein stability index
LPQETNLTLKVCKPQAPQKLDPML | 3.32
LPQETNLTLKVCKPQAPQKLDPKL | 4.16
LPQETNLTLKVCKPQAPQKLDPVL | 3.4
LPQETNLTLKVCKPQAPQKLGPTL | 3.3
LPQETNLTLKVCKPQAPQKLIPTL | 2.74
LPQETNLTLKVCKPQAPQKLPPTL | 3.35
LPQETNLTLKVCKPQAPQKLTPTL | 3.7
LPQETNLTLKVCKPQAPQKLSPTL | 3.85
LPQETNLTLKVCKPQAPQKLKPTL | 3.77
LPQETNLTLKVCKPQAPQKLRPTL | 3.19
LPQETNLTLKVCKPQAPQKLEPTL | 3.98
LPQETNLTLKVCKPQAPQKLHPTL | 2.86
LPQETNLTLKVCKPQAPQKLMPTL | 2.86
LPQETNLTLKVCKPQAPQKLAPTL | 2.65
LPQETNLTLKVCKPQAPQKLQPTL | 3.19
LPQETNLTLKVCKPQAPQKLFPTL | 2.66
LPQETNLTLKVCKPQAPQKLNPTL | 3.17
LPQETNLTLKVCKPQAPQKLVPTL | 2.87
LPQETNLTLKVCKPQAPQKLWPTL | 2.36
LPQETNLTLKVCKPQAPQKLCPTL | 3.05
LPQETNLTLKVCKPQAPQKLLPTL | 2.44
LPQETNLTLKVCKPQAPQKLYPTL | 2.73
